Measurements as given in the supplement of paper PMC10567573.

B1: SNAP91 (parent)
chain: FAQPMMRPPFGAAAVPGTQLSPSP

Variants of: B1
Experiment: protein stability index of a GFP-peptide fusion (GPS, HEK-293T) (PSI 1-6); higher = more stable
Conditions: c terminus: a fixed tail appended
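Further: lentivirally expressed fusions sorted by FACS into six bins by GFP to DsRed ratio, PSI derived from sequencing read proportions per bin multiplied by bin number.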

Compared with FFQPMMRPPFGAAAVPGTQLSPSP [A2F], FGQPMMRPPFGAAAVPGTQLSPSP [A2G] is higher in protein stability index: 2.96 for the first, 3.52 for the second.

Compared with FSQPMMRPPFGAAAVPGTQLSPSP [A2S], FWQPMMRPPFGAAAVPGTQLSPSP [A2W] is lower in protein stability index: 3.81 for the first, 2.45 for the second.

Compared with FQQPMMRPPFGAAAVPGTQLSPSP [A2Q], FKQPMMRPPFGAAAVPGTQLSPSP [A2K] is higher in protein stability index: 3.33 for the first, 3.84 for the second.

Compared with FPQPMMRPPFGAAAVPGTQLSPSP [A2P], FMQPMMRPPFGAAAVPGTQLSPSP [A2M] is lower in protein stability index: 3.72 for the first, 3.62 for the second.

Compared with FNQPMMRPPFGAAAVPGTQLSPSP [A2N], FYQPMMRPPFGAAAVPGTQLSPSP [A2Y] is lower in protein stability index: 4.59 for the first, 3.56 for the second.

Going from FTQPMMRPPFGAAAVPGTQLSPSP [A2T] to FCQPMMRPPFGAAAVPGTQLSPSP [A2C], the protein stability index falls from 3.09 to 2.73.

Compared with FEQPMMRPPFGAAAVPGTQLSPSP [A2E], FIQPMMRPPFGAAAVPGTQLSPSP [A2I] is lower in protein stability index: 4.45 for the first, 1.94 for the second.

Going from FAQPMRRPPFGAAAVPGTQLSPSP [M6R] to FAQPMIRPPFGAAAVPGTQLSPSP [M6I], the protein stability index rises from 3.1 to 3.77.

Going from FAQPMERPPFGAAAVPGTQLSPSP [M6E] to FAQPMQRPPFGAAAVPGTQLSPSP [M6Q], the protein stability index rises from 3.6 to 3.9.

Compared with FAQPMVRPPFGAAAVPGTQLSPSP [M6V], FAQPMGRPPFGAAAVPGTQLSPSP [M6G] is lower in protein stability index: 3.87 for the first, 3.01 for the second.

Going from FAQPMPRPPFGAAAVPGTQLSPSP [M6P] to FAQPMCRPPFGAAAVPGTQLSPSP [M6C], the protein stability index falls from 3.62 to 2.76.

First: FAQPMHRPPFGAAAVPGTQLSPSP [M6H]
Second: FAQPMARPPFGAAAVPGTQLSPSP [M6A]
The protein stability index of the first is higher: 4.01 for the first, 2.89 for the second.

First: FAQPMKRPPFGAAAVPGTQLSPSP [M6K]
Second: FAQPMFRPPFGAAAVPGTQLSPSP [M6F]
The protein stability index of the first is higher: 3.65 for the first, 3.14 for the second.

First: FAQPMTRPPFGAAAVPGTQLSPSP [M6T]
Second: FAQPMWRPPFGAAAVPGTQLSPSP [M6W]
The protein stability index of the first is higher: 3.68 for the first, 2.61 for the second.

First: FAQPMLRPPFGAAAVPGTQLSPSP [M6L]
Second: FAQPMDRPPFGAAAVPGTQLSPSP [M6D]
The protein stability index of the first is lower: 3.13 for the first, 3.46 for the second.

First: FAQPMNRPPFGAAAVPGTQLSPSP [M6N]
Second: FAQPMSRPPFGAAAVPGTQLSPSP [M6S]
The protein stability index of the first is higher: 3.19 for the first, 3.1 for the second.

First: FAQPMYRPPFGAAAVPGTQLSPSP [M6Y]
Second: FAQDMMRPPFGAAAVPGTQLSPSP [P4D]
The protein stability index of the first is higher: 2.88 for the first, 2.7 for the second.

Compared with FAQQMMRPPFGAAAVPGTQLSPSP [P4Q], FAQIMMRPPFGAAAVPGTQLSPSP [P4I] is lower in protein stability index: 2.02 for the first, 1.96 for the second.

Compared with FAQLMMRPPFGAAAVPGTQLSPSP [P4L], FAQEMMRPPFGAAAVPGTQLSPSP [P4E] is higher in protein stability index: 1.65 for the first, 2.77 for the second.

First: FAQRMMRPPFGAAAVPGTQLSPSP [P4R]
Second: FAQGMMRPPFGAAAVPGTQLSPSP [P4G]
The protein stability index of the first is higher: 2.54 for the first, 2.01 for the second.

Compared with FAQHMMRPPFGAAAVPGTQLSPSP [P4H], FAQMMMRPPFGAAAVPGTQLSPSP [P4M] is lower in protein stability index: 2.75 for the first, 1.61 for the second.

First: FAQCMMRPPFGAAAVPGTQLSPSP [P4C]
Second: FAQVMMRPPFGAAAVPGTQLSPSP [P4V]
The protein stability index of the first is higher: 2.48 for the first, 2.33 for the second.

First: FAQTMMRPPFGAAAVPGTQLSPSP [P4T]
Second: FAQNMMRPPFGAAAVPGTQLSPSP [P4N]
The protein stability index of the first is higher: 2.53 for the first, 2.36 for the second.

Going from FAQAMMRPPFGAAAVPGTQLSPSP [P4A] to FAQFMMRPPFGAAAVPGTQLSPSP [P4F], the protein stability index falls from 2.05 to 1.44.

Compared with FAQYMMRPPFGAAAVPGTQLSPSP [P4Y], FAQKMMRPPFGAAAVPGTQLSPSP [P4K] is higher in protein stability index: 1.83 for the first, 1.97 for the second.

First: FAQSMMRPPFGAAAVPGTQLSPSP [P4S]
Second: FAQWMMRPPFGAAAVPGTQLSPSP [P4W]
The protein stability index of the first is higher: 2.26 for the first, 1.83 for the second.

Going from FAQPMMPPPFGAAAVPGTQLSPSP [R7P] to FAQPMMMPPFGAAAVPGTQLSPSP [R7M], the protein stability index falls from 2.87 to 2.42.

First: FAQPMMCPPFGAAAVPGTQLSPSP [R7C]
Second: FAQPMMIPPFGAAAVPGTQLSPSP [R7I]
The protein stability index of the first is lower: 2.3 for the first, 2.4 for the second.

Compared with FAQPMMSPPFGAAAVPGTQLSPSP [R7S], FAQPMMYPPFGAAAVPGTQLSPSP [R7Y] is lower in protein stability index: 3.32 for the first, 1.89 for the second.

Going from FAQPMMLPPFGAAAVPGTQLSPSP [R7L] to FAQPMMTPPFGAAAVPGTQLSPSP [R7T], the protein stability index rises from 2.38 to 2.67.

First: FAQPMMKPPFGAAAVPGTQLSPSP [R7K]
Second: FAQPMMEPPFGAAAVPGTQLSPSP [R7E]
The protein stability index of the first is higher: 3.34 for the first, 3.22 for the second.

Going from FAQPMMWPPFGAAAVPGTQLSPSP [R7W] to FAQPMMHPPFGAAAVPGTQLSPSP [R7H], the protein stability index rises from 1.7 to 2.81.

First: FAQPMMGPPFGAAAVPGTQLSPSP [R7G]
Second: FAQPMMAPPFGAAAVPGTQLSPSP [R7A]
The protein stability index of the first is lower: 2.23 for the first, 3.55 for the second.

Compared with FAQPMMQPPFGAAAVPGTQLSPSP [R7Q], FAQPMMDPPFGAAAVPGTQLSPSP [R7D] is higher in protein stability index: 2.62 for the first, 3.13 for the second.

First: FAQPMMFPPFGAAAVPGTQLSPSP [R7F]
Second: FAQPMMNPPFGAAAVPGTQLSPSP [R7N]
The protein stability index of the first is lower: 1.55 for the first, 2.92 for the second.

Compared with FAQPMMVPPFGAAAVPGTQLSPSP [R7V], FAQPMMRPPNGAAAVPGTQLSPSP [F10N] is higher in protein stability index: 2.49 for the first, 4.14 for the second.

Compared with FAQPMMRPPWGAAAVPGTQLSPSP [F10W], FAQPMMRPPIGAAAVPGTQLSPSP [F10I] is higher in protein stability index: 2.1 for the first, 3.99 for the second.

First: FAQPMMRPPSGAAAVPGTQLSPSP [F10S]
Second: FAQPMMRPPKGAAAVPGTQLSPSP [F10K]
The protein stability index of the first is lower: 3.81 for the first, 3.83 for the second.

Compared with FAQPMMRPPEGAAAVPGTQLSPSP [F10E], FAQPMMRPPRGAAAVPGTQLSPSP [F10R] is lower in protein stability index: 3.99 for the first, 3.86 for the second.

Going from FAQPMMRPPVGAAAVPGTQLSPSP [F10V] to FAQPMMRPPYGAAAVPGTQLSPSP [F10Y], the protein stability index falls from 4.7 to 2.83.

Going from FAQPMMRPPHGAAAVPGTQLSPSP [F10H] to FAQPMMRPPGGAAAVPGTQLSPSP [F10G], the protein stability index rises from 3.58 to 4.2.

Going from FAQPMMRPPDGAAAVPGTQLSPSP [F10D] to FAQPMMRPPAGAAAVPGTQLSPSP [F10A], the protein stability index falls from 4.52 to 3.98.

Going from FAQPMMRPPMGAAAVPGTQLSPSP [F10M] to FAQPMMRPPQGAAAVPGTQLSPSP [F10Q], the protein stability index rises from 4.12 to 4.33.

Going from FAQPMMRPPLGAAAVPGTQLSPSP [F10L] to FAQPMMRPPTGAAAVPGTQLSPSP [F10T], the protein stability index rises from 4.12 to 4.14.

First: FAQPMMRPPPGAAAVPGTQLSPSP [F10P]
Second: FAQPMMRPPCGAAAVPGTQLSPSP [F10C]
The protein stability index of the first is higher: 4.31 for the first, 2.95 for the second.

Going from FAQPMMRPPFDAAAVPGTQLSPSP [G11D] to FAQPMMRPPFAAAAVPGTQLSPSP [G11A], the protein stability index rises from 3.7 to 3.74.

Compared with FAQPMMRPPFCAAAVPGTQLSPSP [G11C], FAQPMMRPPFEAAAVPGTQLSPSP [G11E] is higher in protein stability index: 2.96 for the first, 3.43 for the second.
